Assay results: the Human Domainome abundance scans (Beltran et al. 2025)
± gives the uncertainty stated by the source.

B1: POU domain, class 2, transcription factor 2, residues 200 to 269; numbered along this chain, P09086 (parent)
chain: LEELEQFARTFKQRRIKLGFTQGDVGLAMGKLYGNDFSQTTISRFEALNLSFKNMCKLKPLLEKWLNDAE

Variants of: B1
Assay: abundance fitness (aPCA) (normalised: wild type 0, dead -1); higher = more abundant; growth selection in yeast, the domain comes from the species named
Settings: Homo sapiens

| Variant | abundance fitness |
| --- | --- |
| LEELEQFARTFKQRRIKLGFTQGDVGLAMGKLYGNDFSQGTISRFEALNLSFKNMCKLKPLLEKWLNDAE [T40G] | -0.036 ± 0.042 |
| LEELEQFARTFKQRRIKLGFTQGDVGLAMGKLYGNDFSQHTISRFEALNLSFKNMCKLKPLLEKWLNDAE [T40H] | -0.161 ± 0.13 |
| LEELEQFARTFKQRRIKLGFTQGDVGLAMGKLYGNDFSQITISRFEALNLSFKNMCKLKPLLEKWLNDAE [T40I] | -0.285 ± 0.11 |
| LEELEQFARTFKQRRIKLGFTQGDVGLAMGKLYGNDFSQKTISRFEALNLSFKNMCKLKPLLEKWLNDAE [T40K] | 0.232 ± 0.2 |
| LEELEQFARTFKQRRIKLGFTQGDVGLAMGKLYGNDFSQLTISRFEALNLSFKNMCKLKPLLEKWLNDAE [T40L] | -0.078 ± 0.06 |
| LEELEQFARTFKQRRIKLGFTQGDVGLAMGKLYGNDFSQMTISRFEALNLSFKNMCKLKPLLEKWLNDAE [T40M] | -0.058 ± 0.085 |
| LEELEQFARTFKQRRIKLGFTQGDVGLAMGKLYGNDFSQNTISRFEALNLSFKNMCKLKPLLEKWLNDAE [T40N] | -0.107 ± 0.083 |
| LEELEQFARTFKQRRIKLGFTQGDVGLAMGKLYGNDFSQPTISRFEALNLSFKNMCKLKPLLEKWLNDAE [T40P] | -0.072 ± 0.087 |
| LEELEQFARTFKQRRIKLGFTQGDVGLAMGKLYGNDFSQQTISRFEALNLSFKNMCKLKPLLEKWLNDAE [T40Q] | 0.009 ± 0.064 |
| LEELEQFARTFKQRRIKLGFTQGDVGLAMGKLYGNDFSQRTISRFEALNLSFKNMCKLKPLLEKWLNDAE [T40R] | -0.021 ± 0.032 |
| LEELEQFARTFKQRRIKLGFTQGDVGLAMGKLYGNDFSQSTISRFEALNLSFKNMCKLKPLLEKWLNDAE [T40S] | 0.032 ± 0.049 |
| LEELEQFARTFKQRRIKLGFTQGDVGLAMGKLYGNDFSQVTISRFEALNLSFKNMCKLKPLLEKWLNDAE [T40V] | 0.068 ± 0.046 |
| LEELEQFARTFKQRRIKLGFTQGDVGLAMGKLYGNDFSQYTISRFEALNLSFKNMCKLKPLLEKWLNDAE [T40Y] | 0.031 ± 0.12 |
| LEELEQFARTFKQRRIKLGFTQGDVGLAMGKLYGNDFSQTAISRFEALNLSFKNMCKLKPLLEKWLNDAE [T41A] | -0.048 ± 0.064 |
| LEELEQFARTFKQRRIKLGFTQGDVGLAMGKLYGNDFSQTCISRFEALNLSFKNMCKLKPLLEKWLNDAE [T41C] | 0.094 ± 0.097 |
| LEELEQFARTFKQRRIKLGFTQGDVGLAMGKLYGNDFSQTDISRFEALNLSFKNMCKLKPLLEKWLNDAE [T41D] | 0.029 ± 0.14 |
| LEELEQFARTFKQRRIKLGFTQGDVGLAMGKLYGNDFSQTEISRFEALNLSFKNMCKLKPLLEKWLNDAE [T41E] | -0.029 ± 0.093 |
| LEELEQFARTFKQRRIKLGFTQGDVGLAMGKLYGNDFSQTFISRFEALNLSFKNMCKLKPLLEKWLNDAE [T41F] | -0.114 ± 0.097 |
| LEELEQFARTFKQRRIKLGFTQGDVGLAMGKLYGNDFSQTGISRFEALNLSFKNMCKLKPLLEKWLNDAE [T41G] | -0.193 ± 0.039 |

| Variant | abundance fitness |
| --- | --- |
| LEELEQFARTFKQRRIKLGFTQGDVGLAMGKLYGNDFSQTHISRFEALNLSFKNMCKLKPLLEKWLNDAE [T41H] | 0.023 ± 0.073 |
| LEELEQFARTFKQRRIKLGFTQGDVGLAMGKLYGNDFSQTIISRFEALNLSFKNMCKLKPLLEKWLNDAE [T41I] | -0.108 ± 0.12 |
| LEELEQFARTFKQRRIKLGFTQGDVGLAMGKLYGNDFSQTKISRFEALNLSFKNMCKLKPLLEKWLNDAE [T41K] | -0.09 ± 0.027 |
| LEELEQFARTFKQRRIKLGFTQGDVGLAMGKLYGNDFSQTLISRFEALNLSFKNMCKLKPLLEKWLNDAE [T41L] | -0.041 ± 0.038 |
| LEELEQFARTFKQRRIKLGFTQGDVGLAMGKLYGNDFSQTMISRFEALNLSFKNMCKLKPLLEKWLNDAE [T41M] | 0.04 ± 0.068 |
| LEELEQFARTFKQRRIKLGFTQGDVGLAMGKLYGNDFSQTNISRFEALNLSFKNMCKLKPLLEKWLNDAE [T41N] | -0.062 ± 0.092 |
| LEELEQFARTFKQRRIKLGFTQGDVGLAMGKLYGNDFSQTQISRFEALNLSFKNMCKLKPLLEKWLNDAE [T41Q] | -0.061 ± 0.047 |
| LEELEQFARTFKQRRIKLGFTQGDVGLAMGKLYGNDFSQTRISRFEALNLSFKNMCKLKPLLEKWLNDAE [T41R] | -0.179 ± 0.036 |
| LEELEQFARTFKQRRIKLGFTQGDVGLAMGKLYGNDFSQTSISRFEALNLSFKNMCKLKPLLEKWLNDAE [T41S] | -0.059 ± 0.058 |
| LEELEQFARTFKQRRIKLGFTQGDVGLAMGKLYGNDFSQTVISRFEALNLSFKNMCKLKPLLEKWLNDAE [T41V] | 0.024 ± 0.076 |
| LEELEQFARTFKQRRIKLGFTQGDVGLAMGKLYGNDFSQTWISRFEALNLSFKNMCKLKPLLEKWLNDAE [T41W] | -0.014 ± 0.059 |
| LEELEQFARTFKQRRIKLGFTQGDVGLAMGKLYGNDFSQTYISRFEALNLSFKNMCKLKPLLEKWLNDAE [T41Y] | -0.078 ± 0.13 |
| LEELEQFARTFKQRRIKLGFTQGDVGLAMGKLYGNDFSQTTASRFEALNLSFKNMCKLKPLLEKWLNDAE [I42A] | -0.609 ± 0.086 |
| LEELEQFARTFKQRRIKLGFTQGDVGLAMGKLYGNDFSQTTCSRFEALNLSFKNMCKLKPLLEKWLNDAE [I42C] | -0.375 ± 0.16 |
| LEELEQFARTFKQRRIKLGFTQGDVGLAMGKLYGNDFSQTTDSRFEALNLSFKNMCKLKPLLEKWLNDAE [I42D] | -0.857 ± 0.24 |
| LEELEQFARTFKQRRIKLGFTQGDVGLAMGKLYGNDFSQTTESRFEALNLSFKNMCKLKPLLEKWLNDAE [I42E] | -0.758 ± 0.1 |
| LEELEQFARTFKQRRIKLGFTQGDVGLAMGKLYGNDFSQTTFSRFEALNLSFKNMCKLKPLLEKWLNDAE [I42F] | -0.375 ± 0.12 |
| LEELEQFARTFKQRRIKLGFTQGDVGLAMGKLYGNDFSQTTGSRFEALNLSFKNMCKLKPLLEKWLNDAE [I42G] | -1.02 ± 0.12 |
| LEELEQFARTFKQRRIKLGFTQGDVGLAMGKLYGNDFSQTTHSRFEALNLSFKNMCKLKPLLEKWLNDAE [I42H] | -1.01 ± 0.32 |
